Experimental data as given in IntAct's records for PubMed 31515488.

B1: Conserved oligomeric Golgi complex subunit 7 (Homo sapiens), P83436 (parent)
chain: MDFSKFLADDFDVKEWINAAFRAGSKEAASGKADGHAATLVMKLQLFIQEVNHAVEETSHQALQNMPKVLRDVEALKQEASFLKEQMILVKEDIKKFEQDTSQSMQVLVEIDQVKSRMQLAAESLQEADKWSTLSADIEETFKTQDIAVISAKLTGMQNSLMMLVDTPDYSEKCVHLEALKNRLEALASPQIVAAFTSQAVDQSKVFVKVFTEIDRMPQLLAYYYKCHKVQLLAAWQELCQSDLSLDRQLTGLYDALLGAWHTQIQWATQVFQKPHEVVMVLLIQTLGALMPSLPSCLSNGVERAGPEQELTRLLEFYDATAHFAKGLEMALLPHLHEHNLVKVTELVDAVYDPYKPYQLKYGDMEESNLLIQMSAVPLEHGEVIDCVQELSHSVNKLFGLASAAVDRCVRFTNGLGTCGLLSALKSLFAKYVSDFTSTLQSIRKKCKLDHIPPNSLFQEDWTAFQNSIRIIATCGELLRHCGDFEQQLANRILSTAGKYLSDSCSPRSLAGFQESILTDKKNSAKNPWQEYNYLQKDNPAEYASLMEILYTLKEKGSSNHNLLAAPRAALTRLNQQAHQLAFDSVFLRIKQQLLLISKMDSWNTAGIGETLTDELPAFSLTPLEYISNIGQYIMSLPLNLEPFVTQEDSALELALHAGKLPFPPEQGDELPELDNMADNWLGSIARATMQTYCDAILQIPELSPHSAKQLATDIDYLINVMDALGLQPSRTLQHIVTLLKTRPEDYRQVSKGLPRRLATTVATMRSVNY
B2: X-linked retinitis pigmentosa GTPase regulator (Homo sapiens), Q92834 (parent)
chain: MREPEELMPDSGAVFTFGKSKFAENNPGKFWFKNDVPVHLSCGDEHSAVVTGNNKLYMFGSNNWGQLGLGSKSAISKPTCVKALKPEKVKLAACGRNHTLVSTEGGNVYATGGNNEGQLGLGDTEERNTFHVISFFTSEHKIKQLSAGSNTSAALTEDGRLFMWGDNSEGQIGLKNVSNVCVPQQVTIGKPVSWISCGYYHSAFVTTDGELYVFGEPENGKLGLPNQLLGNHRTPQLVSEIPEKVIQVACGGEHTVVLTENAVYTFGLGQFGQLGLGTFLFETSEPKVIENIRDQTISYISCGENHTALITDIGLMYTFGDGRHGKLGLGLENFTNHFIPTLCSNFLRFIVKLVACGGCHMVVFAAPHRGVAKEIEFDEINDTCLSVATFLPYSSLTSGNVLQRTLSARMRRRERERSPDSFSMRRTLPPIEGTLGLSACFLPNSVFPRCSERNLQESVLSEQDLMQPEEPDYLLDEMTKEAEIDNSSTVESLGETTDILNMTHIMSLNSNEKSLKLSPVQKQKKQQTIGELTQDTALTENDDSDEYEEMSEMKEGKACKQHVSQGIFMTQPATTIEAFSDEEVGNDTGQVGPQADTDGEGLQKEVYRHENNNGVDQLDAKEIEKESDGGHSQKESEAEEIDSEKETKLAEIAGMKDLREREKSTKKMSPFFGNLPDRGMNTESEENKDFVKKRESCKQDVIFDSERESVEKPDSYMEGASESQQGIADGFQQPEAIEFSSGEKEDDEVETDQNIRYGRKLIEQGNEKETKPIISKSMAKYDFKCDRLSEIPEEKEGAEDSKGNGIEEQEVEANEENVKVHGGRKEKTEILSDDLTDKAEDHEFSKTEELKLEDVDEEINAENVESKKKTVGDDESVPTGYHSKTEGAERTNDDSSAETIEKKEKANLEERAICEYNENPKGYMLDDADSSSLEILENSETTPSKDMKKTKKIFLFKRVPSINQKIVKNNNEPLPEIKSIGDQIILKSDNKDADQNHMSQNHQNIPPTNTERRSKSCTIL
partner: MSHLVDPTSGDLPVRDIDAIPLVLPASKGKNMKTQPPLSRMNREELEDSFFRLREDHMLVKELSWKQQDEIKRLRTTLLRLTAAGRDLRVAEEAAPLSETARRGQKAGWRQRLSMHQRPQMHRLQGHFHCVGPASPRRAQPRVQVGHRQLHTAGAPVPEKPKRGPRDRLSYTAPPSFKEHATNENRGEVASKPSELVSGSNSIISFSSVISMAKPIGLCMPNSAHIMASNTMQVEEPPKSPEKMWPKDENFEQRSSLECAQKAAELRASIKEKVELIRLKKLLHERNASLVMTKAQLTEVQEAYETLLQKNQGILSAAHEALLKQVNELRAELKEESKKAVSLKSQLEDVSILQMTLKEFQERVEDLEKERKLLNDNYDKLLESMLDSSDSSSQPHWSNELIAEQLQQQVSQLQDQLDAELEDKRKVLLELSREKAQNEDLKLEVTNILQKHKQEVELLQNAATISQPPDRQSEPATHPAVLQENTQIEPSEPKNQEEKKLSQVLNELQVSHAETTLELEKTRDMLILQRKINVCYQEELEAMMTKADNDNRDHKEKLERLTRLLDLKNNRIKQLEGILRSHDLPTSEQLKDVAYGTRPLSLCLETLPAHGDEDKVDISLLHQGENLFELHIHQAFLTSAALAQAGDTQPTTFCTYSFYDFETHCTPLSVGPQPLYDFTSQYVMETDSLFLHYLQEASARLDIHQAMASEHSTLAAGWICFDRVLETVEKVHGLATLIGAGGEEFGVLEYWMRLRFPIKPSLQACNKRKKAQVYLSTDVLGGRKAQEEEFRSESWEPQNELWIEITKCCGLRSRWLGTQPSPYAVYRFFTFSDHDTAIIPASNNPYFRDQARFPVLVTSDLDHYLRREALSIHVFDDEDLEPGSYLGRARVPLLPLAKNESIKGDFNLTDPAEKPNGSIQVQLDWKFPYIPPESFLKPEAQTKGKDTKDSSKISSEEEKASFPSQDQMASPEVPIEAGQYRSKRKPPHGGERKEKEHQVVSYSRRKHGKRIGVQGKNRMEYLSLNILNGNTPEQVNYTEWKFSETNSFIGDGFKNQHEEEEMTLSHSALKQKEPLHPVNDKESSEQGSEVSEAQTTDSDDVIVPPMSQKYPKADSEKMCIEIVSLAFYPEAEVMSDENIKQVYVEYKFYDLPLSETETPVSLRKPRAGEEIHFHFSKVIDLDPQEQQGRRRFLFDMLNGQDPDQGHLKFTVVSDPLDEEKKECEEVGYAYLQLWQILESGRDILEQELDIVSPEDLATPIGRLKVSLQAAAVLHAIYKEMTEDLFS
B3: Elongin-A2 (Homo sapiens), Q8IYF1 (parent)
chain: MAAGSTTLHAVEKLQVRLATKTEPKKLEKYLQKLSALPMTADILAETGIRKTVKRLRKHQHVGDFARDLAARWKKLVLVDRNTRPGPQDPEESASRQRFGEALQDQEKAWGFPENATAPRSPSHSPEHRRTARRTPPGQQRPHPRSHSREPRAERKCPRIAPADSGRYRASPTRTAPLRMPEGPEPAAPGKQPGRGHTHAAQGGPLLCPGCQGQPQGKAVVSHSKGHKSSRQEKRPLCAQGDWHSPTLIREKSCGACLREETPRMPSWASARDRQPSDFKTDKEGGQAGSGQRVPALEEAPDSHQKRPQHSHSNKKRPSLDGRDPGNGTHGLSPEEKEQLSNDRETQEGKPPTAHLDRTSVSSLSEVEEVDMAEEFEQPTLSCEKYLTYDQLRKQKKKTGKSATTALGDKQRKANESKGTRESWDSAKKLPPVQESQSERLQAAGADSAGPKTVPSHVFSELWDLSEAWMQANYDPLSDSDSMTSQAKPEALSSPKFREEAAFPGRRVNAKMPVYSGSRPACQLQVPTLRQQCAQVLRNNPDALSDVGEVPYWVLEPVLEGWRPDQLYRRKKDNHALVRETDELRRNHCFQDFKEEKPQENKTWREQYLRLPDAPEQRLRVMTTNIRSARGNNPNGREAKMICFKSVAKTPYDTSRRQEKSAGDADPENGEIKPASKPAGSSHTPSSQSSSGGGRDSSSSILRWLPEKRANPCLSSSNEHAAPAAKTRKQAAKKVAPLMAKAIRDYKRRFSRR

Variants of: B1
Settings: with taxb1_human TAX1BP1, Q86VP1
Chain of taxb1_human TAX1BP1, Q86VP1 (Q86VP1 whole entry): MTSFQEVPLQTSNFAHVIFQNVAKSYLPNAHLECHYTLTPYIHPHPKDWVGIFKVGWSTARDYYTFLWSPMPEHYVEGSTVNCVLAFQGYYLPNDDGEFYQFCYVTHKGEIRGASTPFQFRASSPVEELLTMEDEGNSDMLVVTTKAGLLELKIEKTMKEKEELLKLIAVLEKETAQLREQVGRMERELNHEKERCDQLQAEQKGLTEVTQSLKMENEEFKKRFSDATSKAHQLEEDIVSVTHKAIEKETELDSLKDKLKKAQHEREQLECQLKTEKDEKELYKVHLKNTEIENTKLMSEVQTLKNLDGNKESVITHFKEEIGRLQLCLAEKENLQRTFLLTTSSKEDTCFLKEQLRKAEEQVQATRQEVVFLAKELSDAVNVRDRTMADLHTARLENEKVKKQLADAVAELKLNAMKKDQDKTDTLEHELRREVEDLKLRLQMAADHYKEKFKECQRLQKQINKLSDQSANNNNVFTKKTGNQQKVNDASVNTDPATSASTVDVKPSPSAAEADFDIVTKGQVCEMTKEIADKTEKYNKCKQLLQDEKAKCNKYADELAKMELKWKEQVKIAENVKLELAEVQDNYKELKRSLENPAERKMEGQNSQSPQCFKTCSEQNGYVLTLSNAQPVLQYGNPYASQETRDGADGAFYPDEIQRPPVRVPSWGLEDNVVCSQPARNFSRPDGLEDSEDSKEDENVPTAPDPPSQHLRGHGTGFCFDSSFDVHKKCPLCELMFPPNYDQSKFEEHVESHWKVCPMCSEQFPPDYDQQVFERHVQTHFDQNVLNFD

| effect of a mutation on the interaction | Variant |
| --- | --- |
| with no effect | Q749K |

Variants of: B2
Settings: with rpgr1_human RPGRIP1, Q96KN7

| effect of a mutation on the interaction | Variant |
| --- | --- |
| with no effect | Q456R |
| with no effect | I431V |
| with no effect | I75V |
| with no effect | C302S |
| with no effect | R425K |
| with no effect | Q184H |

Variants of: B3
Settings: with traf2_human TRAF2, Q12933
Chain of traf2_human TRAF2, Q12933 (Q12933 whole entry): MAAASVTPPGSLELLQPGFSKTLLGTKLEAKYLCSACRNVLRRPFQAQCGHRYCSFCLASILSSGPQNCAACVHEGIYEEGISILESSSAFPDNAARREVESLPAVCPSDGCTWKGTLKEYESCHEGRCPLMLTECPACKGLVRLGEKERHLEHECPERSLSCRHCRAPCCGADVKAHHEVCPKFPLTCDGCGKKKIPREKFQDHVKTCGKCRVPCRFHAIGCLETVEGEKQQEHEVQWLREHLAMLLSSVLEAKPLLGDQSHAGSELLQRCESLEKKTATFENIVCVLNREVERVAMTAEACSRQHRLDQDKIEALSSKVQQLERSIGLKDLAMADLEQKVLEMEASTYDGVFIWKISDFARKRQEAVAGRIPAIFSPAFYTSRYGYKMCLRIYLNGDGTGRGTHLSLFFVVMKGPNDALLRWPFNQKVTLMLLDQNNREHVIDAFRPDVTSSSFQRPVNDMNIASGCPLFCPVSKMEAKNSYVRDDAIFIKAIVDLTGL

| Variant | effect of a mutation on the interaction |
| --- | --- |
| C254F | with no effect |
| R179P | with no effect |

Continued, values first:

| effect of a mutation on the interaction | Variant |
| --- | --- |
| with no effect | A446T |
| with no effect | G505R |
